Assays:
[1] = biological target: Human IgG1 Fc wt (residues 216-447) with G2F N-glycan (human); assay: pull-down
[2] = biological target: GFP-FcγRIIIa, extracellular region of human FcγRIIIa (residues 19-193, V158 allotype) (human) (UniProt P08637); assay: SPR
[3] = biological target: GFP-FcγRIIIa, extracellular region of human FcγRIIIa (residues 19-193, V158 allotype) (human) (UniProt P08637); assay: ITC

Q: Which Kd [1] does the source give for “GFP-FcγRIIIa, extracellular region of human FcγRIIIa (residues 19-193, V158 allotype) (from UniProt P08637 19-193) (receptor)” here?
A: Its Kd is 500 nM.

Q: How did the Kd [2] turn out when “Human IgG1 Fc F241I/F243I with a single GlcNAc residue (domain or fragment)” was run?
A: Its Kd is 6300 nM.

Q: With “Human IgG1 Fc wt with a single GlcNAc residue (GlcNAc-Fc) (domain or fragment)” as the substance, how does the Kd [2] read?
A: The Kd was 2400 nM.

Q: “Human IgG1 Fc K246F with G2F N-glycan (domain or fragment)” was tested. Which Kd [2] did it give?
A: Its Kd is 340 nM.

Q: For “Human IgG1 Fc F241S/F243S with G2F N-glycan (domain or fragment)”, which Kd [2] is on record?
A: Its Kd is 29000 nM.

Q: Which results are given for “Human IgG1 Fc wt (residues 216-447) with G2F N-glycan (domain or fragment)”?
A: Kd [3]: 1200 nM; Kd [2]: 550 nM

Q: “Human IgG1 Fc F241I with G2F N-glycan (domain or fragment)” was tested. Which Kd [2] did it give?
A: The Kd was 2100 nM.

Q: “Human IgG1 Fc F241S with G2F N-glycan (domain or fragment)” was tested. Which Kd [2] did it give?
A: The Kd was 1500 nM.

Q: For “Human IgG1 Fc F241I/F243I with G2F N-glycan (domain or fragment)”, which Kd [2] is on record?
A: The Kd was 10000 nM.

Q: For “Human IgG1 Fc F241S/F243S with a single GlcNAc residue (domain or fragment)”, which Kd [2] is on record?
A: Its Kd is 3500 nM.

Q: “Human IgG1 Fc F243S with G2F N-glycan (domain or fragment)” was tested. Which Kd [2] did it give?
A: Its Kd is 1900 nM.

Source: article PMC4192013
